What was measured:
[1] = target: T1, human adrenomedullin (hADM 1-52) (human); test: SPR (Biacore 2000), antibody captured via anti-mouse Fc, adrenomedullin as analyte
T1 construct: 52 amino acids, aa 95-146 of pre-proADM; also called Human ADM 1-52
Description: Reversible immobilization of the antibodies was performed using an anti-mouse Fc antibody covalently coupled in high density to a CM5 sensor surface according to the manufacturer's instructions (mouse antibody capture kit; GE Healthcare). (Lorenz et al., “Functional Antibodies Targeting IsaA of Staphylococcus aureus Augment-lost Immune Response and Open New Perspectives for Antibacterial Therapy”; Antimicrob Agents Chemother. 2011 January; 55(1): 165-173.)

[2] = target: T1, human adrenomedullin (hADM 1-52); test: cell-based or functional assay
[3] = target: T1, human adrenomedullin (hADM 1-52); test: cell-based or functional assay; remark: listed apart in the source
[4] = target: human recombinant adrenomedullin receptor (CRLR+RAMP3) (human); test: cell-based or functional assay

T1 sequence (peptide, as listed by the source): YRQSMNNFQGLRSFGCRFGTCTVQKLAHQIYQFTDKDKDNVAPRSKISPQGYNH

Kd [1] [nM] | IC50 (read off the curve), half of the antibody's own maximal inhibition of cAMP formation induced by 5.63 nM hADM [2] [µg/mL] | fold stability of hADM in human citrate plasma with NT-H against hADM alone (7.8 h) [3] [fold] | EC50 (read off the curve), cAMP formation [4] [nM] | Binder
5.9 | ~2 | 2.3 |  | NT-H (antibody, V domains shown, also called NT-H antibody; antibody NT-H) VH: QVQLQQSGAELMKPGASVKISCKATGYTFSRYWIEWVKQRPGHGLEWIGEILPGSGSTNYNEKFKGKATITADTSSNTAYMQLSSLTSEDSAVYYCTEGYEYDGFDYWGQGTTLTVSS VL: DVLLSQTPLSLPVSLGDQATISCRSSQSIVYSNGNTYLEWYLQKPGQSPKLLIYRVSNRFSGVPDRFSGSGSGTDFTLKISRVEAEDLGVYYCFQGSHIPYTFGGGTKLEIK
 |  |  | ~0.08 | mouse adrenomedullin (mADM 1-50) (peptide) peptide: YRQSMNQGSRSNGCRFGTCTFQKLAHQIYQLTDKDKDGMAPRNKISPQGYNH
